# T1: Cdc13-MOB (Saccharomyces cerevisiae, UniProt P32797 344-496)
# T1 sequence: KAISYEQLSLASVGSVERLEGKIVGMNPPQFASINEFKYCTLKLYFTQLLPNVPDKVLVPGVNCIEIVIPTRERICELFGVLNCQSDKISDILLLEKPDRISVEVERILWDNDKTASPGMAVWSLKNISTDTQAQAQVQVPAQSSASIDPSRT
# T2: Cdc13-L91R (Saccharomyces cerevisiae, UniProt P32797 1-924, L91R)
# T2 sequence: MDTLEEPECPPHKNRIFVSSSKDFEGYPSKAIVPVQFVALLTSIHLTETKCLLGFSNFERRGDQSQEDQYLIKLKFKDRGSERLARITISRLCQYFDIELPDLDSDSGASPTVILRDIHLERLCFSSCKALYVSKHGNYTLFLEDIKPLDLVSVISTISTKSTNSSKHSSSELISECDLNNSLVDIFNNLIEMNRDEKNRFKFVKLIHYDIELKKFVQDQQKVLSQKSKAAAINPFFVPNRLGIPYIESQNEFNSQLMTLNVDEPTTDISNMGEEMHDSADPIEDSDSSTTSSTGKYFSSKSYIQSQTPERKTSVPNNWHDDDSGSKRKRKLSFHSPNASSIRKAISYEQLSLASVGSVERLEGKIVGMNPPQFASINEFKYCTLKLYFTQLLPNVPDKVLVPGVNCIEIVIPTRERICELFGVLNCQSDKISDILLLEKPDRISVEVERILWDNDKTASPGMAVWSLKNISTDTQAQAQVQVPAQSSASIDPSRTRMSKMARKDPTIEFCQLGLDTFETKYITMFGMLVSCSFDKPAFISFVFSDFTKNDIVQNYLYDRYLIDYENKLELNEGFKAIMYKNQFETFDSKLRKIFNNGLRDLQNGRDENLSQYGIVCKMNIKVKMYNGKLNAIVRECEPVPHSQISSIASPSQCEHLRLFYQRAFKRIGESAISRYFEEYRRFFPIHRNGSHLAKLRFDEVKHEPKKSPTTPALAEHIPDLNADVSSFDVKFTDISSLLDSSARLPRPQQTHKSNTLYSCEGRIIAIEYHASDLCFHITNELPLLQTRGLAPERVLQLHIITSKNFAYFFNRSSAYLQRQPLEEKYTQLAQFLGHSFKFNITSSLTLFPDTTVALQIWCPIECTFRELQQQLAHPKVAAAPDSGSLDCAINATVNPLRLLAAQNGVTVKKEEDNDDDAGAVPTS
# T3: Cdc13 (Saccharomyces cerevisiae, UniProt P32797 1-924)
# T3 sequence: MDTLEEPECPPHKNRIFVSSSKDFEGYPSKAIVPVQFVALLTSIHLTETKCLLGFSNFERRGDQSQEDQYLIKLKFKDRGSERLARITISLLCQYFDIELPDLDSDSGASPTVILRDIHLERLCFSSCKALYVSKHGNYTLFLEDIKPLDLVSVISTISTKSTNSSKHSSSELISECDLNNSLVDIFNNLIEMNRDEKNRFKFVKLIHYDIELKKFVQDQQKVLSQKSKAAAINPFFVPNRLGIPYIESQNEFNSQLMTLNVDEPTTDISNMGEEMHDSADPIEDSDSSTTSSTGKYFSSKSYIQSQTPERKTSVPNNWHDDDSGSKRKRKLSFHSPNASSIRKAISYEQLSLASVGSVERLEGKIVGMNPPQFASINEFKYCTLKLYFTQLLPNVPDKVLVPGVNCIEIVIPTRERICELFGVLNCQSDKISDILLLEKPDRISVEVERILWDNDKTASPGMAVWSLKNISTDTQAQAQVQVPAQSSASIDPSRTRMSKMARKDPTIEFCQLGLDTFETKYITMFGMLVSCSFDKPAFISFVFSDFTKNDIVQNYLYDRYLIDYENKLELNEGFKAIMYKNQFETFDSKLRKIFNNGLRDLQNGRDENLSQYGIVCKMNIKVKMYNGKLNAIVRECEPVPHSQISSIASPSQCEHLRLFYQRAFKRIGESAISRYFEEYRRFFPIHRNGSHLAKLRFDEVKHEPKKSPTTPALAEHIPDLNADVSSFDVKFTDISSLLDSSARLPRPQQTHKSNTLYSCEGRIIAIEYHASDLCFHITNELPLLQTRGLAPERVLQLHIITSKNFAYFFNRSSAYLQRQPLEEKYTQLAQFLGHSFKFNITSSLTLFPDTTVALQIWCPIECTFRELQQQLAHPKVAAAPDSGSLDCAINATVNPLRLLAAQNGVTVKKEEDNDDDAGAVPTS
# Columns and labels:
# Cdc13-MOB = biological target: T1, Cdc13-MOB
# Cdc13-L91R = biological target: T2, Cdc13-L91R; experiment: EMSA
# Cdc13 = biological target: T3, Cdc13; experiment: EMSA
binder,measurement,setting,value
GTGTGGGTGTG (ssDNA) [Tel11],binding result,Cdc13-MOB,no binding
same,Kd,Cdc13-L91R,5 ± 0.6 pM
same,Kd,Cdc13,13.4 ± 0.4 pM

# Reference: paper PMC3874162 (Nucleic Acids Research, 2013)
